From article PMC9367764, “Functional Versatility of the Human 2-Oxoadipate Dehydrogenase in the L-Lysine Degradation Pathway toward Its Non-Cognate Substrate 2-Oxopimelic Acid” (International Journal of Molecular Sciences, 2022)
Residue numbers refer to the chain shown, from its start. Numbers in names are those of the source. Each block holds one molecule with its values, some of them ahead of it.

Legend:
[1] = target: E2o 1-173 di-domain, labelled with N-(1-pyrene) maleimide (human); assay: other fluorescence titration; pyrene-labelled E2o 1-173 di-domain titrated by Arg715Cys E1a; 25 °C; 100 mM HEPES (pH 7.5), 0.15 M NaCl, 1% glycerol
[2] = target: human dihydrolipoamide dehydrogenase (E3) (human) (UniProt P09622); assay: pull-down; co-purification of E1a or Arg715Cys E1a with E2o and E3 (assembly into OADHc) on immobilized metal affinity chromatography; relative amounts from band intensities in PAGE; which component was held by the resin is not stated
Sequence of human dihydrolipoamide dehydrogenase (E3) (human) (P09622 36-509): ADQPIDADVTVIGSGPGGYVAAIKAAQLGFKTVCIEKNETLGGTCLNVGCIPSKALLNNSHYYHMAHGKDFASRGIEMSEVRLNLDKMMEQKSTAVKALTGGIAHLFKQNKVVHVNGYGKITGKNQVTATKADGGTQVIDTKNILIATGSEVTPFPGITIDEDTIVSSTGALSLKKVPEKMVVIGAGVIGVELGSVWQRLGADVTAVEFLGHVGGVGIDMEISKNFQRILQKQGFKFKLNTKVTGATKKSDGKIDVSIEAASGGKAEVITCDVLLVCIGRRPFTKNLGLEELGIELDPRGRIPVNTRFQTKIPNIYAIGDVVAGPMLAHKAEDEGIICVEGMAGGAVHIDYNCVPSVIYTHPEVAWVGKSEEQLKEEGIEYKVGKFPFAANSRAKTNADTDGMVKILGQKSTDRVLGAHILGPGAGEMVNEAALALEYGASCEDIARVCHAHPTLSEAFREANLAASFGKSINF

[3] = target: human dihydrolipoamide succinyltransferase (E2o) (human) (UniProt P36957); assay: as above
Sequence of human dihydrolipoamide succinyltransferase (E2o) (human) (P36957 68-453): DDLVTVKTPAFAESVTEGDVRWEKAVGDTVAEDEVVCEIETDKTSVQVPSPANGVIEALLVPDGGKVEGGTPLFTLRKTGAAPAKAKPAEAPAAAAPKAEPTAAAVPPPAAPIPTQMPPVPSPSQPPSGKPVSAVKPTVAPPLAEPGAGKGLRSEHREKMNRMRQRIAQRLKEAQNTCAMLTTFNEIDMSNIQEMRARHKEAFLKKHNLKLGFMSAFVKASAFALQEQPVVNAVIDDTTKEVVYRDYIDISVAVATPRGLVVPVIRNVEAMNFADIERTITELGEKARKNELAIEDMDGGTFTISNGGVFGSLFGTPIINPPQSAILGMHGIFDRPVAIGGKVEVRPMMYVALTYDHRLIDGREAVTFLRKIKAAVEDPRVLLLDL

[4] = target: E2o di-domain (linker and part of core domain) (Homo sapiens) (UniProt P36957); assay: fluorescence; conditions: cited from earlier work
Sequence of E2o di-domain (linker and part of core domain) (Homo sapiens) (P36957 68-219): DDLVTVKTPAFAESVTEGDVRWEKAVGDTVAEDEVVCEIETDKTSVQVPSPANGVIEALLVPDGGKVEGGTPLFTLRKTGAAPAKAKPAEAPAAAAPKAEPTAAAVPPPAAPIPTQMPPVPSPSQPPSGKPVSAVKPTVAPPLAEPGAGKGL

[5] = substrate: O=C(O)CCCC(=O)C(=O)O; assay: E1a-specific DCPIP reduction assay (Km, kcat); type: biochemical, Homo sapiens; conditions: ThDP, Mg2+ active center; decarboxylated to the E1a-ThDP-enamine intermediate
[6] = substrate: O=C(O)CCCCC(=O)C(=O)O; assay: E1a-specific DCPIP reduction assay (Km, kcat); type: biochemical, Homo sapiens; conditions: ThDP, Mg2+ active center; decarboxylated to the E1a-ThDP-enamine intermediate
[7] = substrate: O=C(O)CCCC(=O)C(=O)O; assay: E1a-specific DCPIP reduction assay (Km); type: biochemical, Homo sapiens; conditions: ThDP, Mg2+

Kd [1]: 1130 nM | relative amount of E1a among the components co-purified as OADHc (band intensity in PAGE) [2]: 7.7% | relative amount of E1a among the components co-purified as OADHc (band intensity in PAGE) [3]: 7.7%
Molecule: Arg715Cys E1a variant of human 2-oxoadipate dehydrogenase (enzyme)

Molecule: E1a (2-oxoadipate dehydrogenase) (from UniProt Q96HY7)
Kd [4]: 1120 nM

relative amount of E1a among the components co-purified as OADHc (band intensity in PAGE) [2]: 46% | relative amount of E1a among the components co-purified as OADHc (band intensity in PAGE) [3]: 46%
Molecule: human 2-oxoadipate dehydrogenase (E1a), wild type (enzyme)

B1: 2-oxoadipate dehydrogenase (E1a) (Homo sapiens) (protein)
chain: GYQTERGVYGYRPRKPESREPQGALERPPVDHGLARLVTVYCEHGHKAAKINPLFTGQALLENVPEIQALVQTLQGPFHTAGLLNMGKEEASLEEVLVYLNQIYCGQISIETSQLQSQDEKDWFAKRFEELQKETFTTEERKHLSKLMLESQEFDHFLATKFSTVKRYGGEGAESMMGFFHELLKMSAYSGITDVIIGMPHRGRLNLLTGLLQFPPELMFRKMRGLSEFPENFSATGDVLSHLTSSVDLYFGAHHPLHVTMLPNPSHLEAVNPVAVGKTRGRQQSRQDGDYSPDNSAQPGDRVICLQVHGDASFCGQGIVPETFTLSNLPHFRIGGSVHLIVNNQLGYTTPAERGRSSLYCSDIGKLVGCAIIHVNGDSPEEVVRATRLAFEYQRQFRKDVIIDLLCYRQWGHNELDEPFYTNPIMYKIIRARKSIPDTYAEHLIAGGLMTQEEVSEIKSSYYAKLNDHLNNMAHYRPPALNLQAHWQGLAQPEAQITTWSTGVPLDLLRFVGMKSVEVPRELQMHSHLLKTHVQSRMEKMMDGIKLDWATAEALALGSLLAQGFNVRLSGQDVGRGTFSQRHAIVVCQETDDTYIPLNHMDPNQKGFLEVSNSPLSEEAVLGFEYGMSIESPKLLPLWEAQFGDFFNGAQIIFDTFISGGEAKWLLQSGIVILLPHGYDGAGPDHSSCRIERFLQMCDSAEEGVDGDTVNMFVVHPTTPAQYFHLLRRQMVRNFRKPLIVASPKMLLRLPAAVSTLQEMAPGTTFNPVIGDSSVDPKKVKTLVFCSGKHFYSLVKQRESLGAKKHDFAIIRVEELCPFPLDSLQQEMSKYKHVKDHIWSQEEPQNMGPWSFVSPRFEKQLACKLRLVGRPPLPVPAVGIGTVHLHQHEDILAKTFA
notes: C-terminally His6-tagged E1a
Km [5]: 4.9 µM | Km [6]: 37 µM

B2: 2-oxoadipate dehydrogenase (E1a) (Homo sapiens; R455Q) (protein)
chain: B1 chain with R433Q
notes: C-terminally His6-tagged E1a variant
Km [7]: 3.5 µM

B3: 2-oxoadipate dehydrogenase (E1a) (Homo sapiens; Q305H) (protein)
chain: B1 chain with Q283H
notes: as for B2
Km [7]: 5 µM

B4: 2-oxoadipate dehydrogenase (E1a) (Homo sapiens; P773L) (protein)
chain: B1 chain with P751L
Km [7]: 6 µM
